# Laboratory results: US6106823
# Target: CD3 (human)
substance,measurement,value
anti-CD3 mAb SPV-T3b (antibody),"lymphokine production (IL-2, ng/ml) by T cell clone 827 with CD3 + TPA",10.6 ng/mL
